Test results taken from paper PMC6668372, “Trypanosoma brucei centrin5 is enriched in the flagellum and interacts with other centrins in a calcium‐dependent manner” (FEBS Open Bio, 2019).

T1: TbCentrin3, purified for ITC (Trypanosoma brucei, UniProt Q38AA2 1-165)
T1 chain: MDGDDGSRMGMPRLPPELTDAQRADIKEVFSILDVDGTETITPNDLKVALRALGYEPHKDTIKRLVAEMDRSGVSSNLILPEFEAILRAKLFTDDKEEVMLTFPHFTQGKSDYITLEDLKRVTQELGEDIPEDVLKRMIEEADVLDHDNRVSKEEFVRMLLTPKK

T2: TbCentrin4, purified for ITC (Trypanosoma brucei, UniProt Q57WF6 1-149)
T2 chain: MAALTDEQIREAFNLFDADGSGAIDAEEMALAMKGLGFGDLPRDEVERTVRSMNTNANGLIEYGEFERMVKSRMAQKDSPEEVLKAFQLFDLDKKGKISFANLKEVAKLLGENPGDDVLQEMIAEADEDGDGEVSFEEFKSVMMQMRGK

B1: TbCentrin4, purified for ITC (natural protein, Trypanosoma brucei, UniProt Q57WF6 1-149, looked up)
chain: T2 chain
notes: TbCentrin4 of Trypanosoma brucei, Tb927.07.3410; Cloning, tag and host of this protein are not described; also called TbCentirn4; Tb927.07.3410; source: purified and equilibrated as above (gel filtration Sephadex G-75)
B2: TbCentrin3, purified for ITC (natural protein, Trypanosoma brucei, UniProt Q38AA2 1-165, looked up)
chain: T1 chain
notes: TbCentrin3 of Trypanosoma brucei, Tb927.10.8710; Cloning, tag and host of this protein are not described; also called Tb927.10.8710; source: purified and equilibrated as above (gel filtration Sephadex G-75)
B3: TbCentrin1, purified for ITC (natural protein, Trypanosoma brucei, UniProt Q584G1 1-182, looked up)
chain: MSSSRPATGNRLAVPIRTNLPVPAPRKRRFELTDEQRQEIREAFELFDSDKNGLIDAHEMKVSMRALGFDAKKEEVLRMMQDCAARDQHNNPLMDLAGFTDLMTERFAQRDPRQEMIKAFQLFDENNTGKISLRSLRRVARELGENMTDEELQAMIDEFDTDQDGEINLDEFLAIMLEDDDY
notes: TbCentrin1 of Trypanosoma brucei, Tb927.04.2260; Cloning, tag and host of this protein are not described; also called Tb927.04.2260; source: purified and equilibrated as above (gel filtration Sephadex G-75)
B4: Trypanosoma brucei centrin5 (TbCentrin5), purified, His-tag removed (natural protein, UniProt Q382E7 1-186, looked up)
chain: MEGPKLKGAARCAAVEKVESKTQLSIAISEKHKAQLREAFDFFDSDGTGRINAQDVKVAFCALGYEVGKEELTHLLRQVGASTTGVIDFNDFYSVIIAKIMQRENRSEAIRAFKLIDTGEKGYINVDDLRPIAASLQMNLTDDELAEMVLFAHPSATYSKADTEMKDPLTVSEEEFLKLMNRAHVY
notes: TbCentrin5 of Trypanosoma brucei, Tb927.11.13900, full-length gene amplified from genomic DNA; 186 amino acids, about 20 kDa calculated; also called centrin5 of T. brucei; Tb927.11.13900; source: E. coli BL21 (DE3), purified (TEV digestion, gel filtration Sephadex G-75); not shown: His-tag, N-terminal, cleaved

How the values were obtained:
[1] = molecular target: B4; assay: ITC; iTC200, 16 °C, 20 mM Tris/HCl pH 7.0, 100 mM NaCl; 50 uM TbCentrin1/2/3/4 in the cell, 0.5 mM TbCentrin5 in the syringe; without EGTA treatment; details: both partners purified
[2] = molecular target: T1, TbCentrin3, purified for ITC; assay: ITC
[3] = molecular target: T2, TbCentrin4, purified for ITC; assay: ITC
[4] = molecular target: the molecule itself; assay: SEC; gel filtration on Superdex G-75 column, elution at about 66 mL corresponding to about 36 kDa; SDS/PAGE showed no disulfide bond

Binder | Kd [1] [µM] | Kd [2] [µM] | Kd [3] [µM] | stoichiometry N [4]
B1 | 12 | – | – | –
B2 | 52 | – | – | –
B3 | 105 | – | – | –
B4 | – | 56 | 16 | 2
